Assay results reported in the supplement of paper PMC7125110.
± gives the standard error. Variants at the floor of the assay were thinned out.

B1: glmS ribozyme (parent)
chain: AUAAAAGCGCCAGAACUACAGAAAUGUAGUUGACGAGGAGGAGGUUUAUCGAAUUUUCGGCGGAUGCCUCCAAA

Key:
Settings in all cases: with glucosamine-6-phosphate
glucosamine-6-phosphate [1] = variants of: B1; experiment: self-cleavage kobs at 40 uM GlcN6P; higher = faster cleavage; RNA array
In short: (§1)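 The measurements used barcoded ribozyme variants on sequenced MiSeq chips, transcribed in situ by E. coli RNA polymerase and tracked at 37 °C with a hybridised Cy3 probe. Glucosamine-6-phosphate, 40 μM to 10 mM in HEPES/KCl/Mg(OAc)2 buffer, was flowed in while tiles were imaged over ~14 h. Baseline-normalised signals, also normalised to non-cleaving reference variants, gave per-tile medians that were fit to one- or two-exponential decays for kobs. kcat and KM resulted from weighted Michaelis–Menten fits across concentrations.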

glucosamine-6-phosphate [2] = variants of: B1; experiment: self-cleavage kobs at 160 uM GlcN6P; higher = faster cleavage; RNA array
In short: as §1

glucosamine-6-phosphate [3] = variants of: B1; experiment: self-cleavage kobs at 640 uM GlcN6P; higher = faster cleavage; RNA array
In short: as §1

glucosamine-6-phosphate [4] = variants of: B1; experiment: self-cleavage kobs at 2500 uM GlcN6P; higher = faster cleavage; RNA array
In short: as §1

glucosamine-6-phosphate [5] = variants of: B1; experiment: self-cleavage kobs at 10000 uM GlcN6P; higher = faster cleavage; RNA array
In short: as §1

Variant	self-cleavage kobs at 40 uM GlcN6P (glucosamine-6-phosphate [1])	self-cleavage kobs at 160 uM GlcN6P (glucosamine-6-phosphate [2])	self-cleavage kobs at 640 uM GlcN6P (glucosamine-6-phosphate [3])	self-cleavage kobs at 2500 uM GlcN6P (glucosamine-6-phosphate [4])	self-cleavage kobs at 10000 uM GlcN6P (glucosamine-6-phosphate [5])
G7U G9C G35C A36U U49A U56A	< 1e-05 s⁻¹	–	–	–	–
C8U A12C G40A U45G G60A G66U	< 1e-05 s⁻¹	–	–	–	–
C8U A39C	< 1e-05 s⁻¹	< 1e-05 s⁻¹	< 1e-05 s⁻¹	< 1e-05 s⁻¹	< 1e-05 s⁻¹
G7U U65C	< 1e-05 s⁻¹	< 1e-05 s⁻¹	< 1e-05 s⁻¹	< 1e-05 s⁻¹	< 1e-05 s⁻¹
G9A A48G	< 1e-05 s⁻¹	–	< 1e-05 s⁻¹	< 1e-05 s⁻¹	< 1e-05 s⁻¹
C8G G29U A33C C68A	< 1e-05 s⁻¹	–	< 1e-05 s⁻¹	–	< 1e-05 s⁻¹
G9A U46G G62A	< 1e-05 s⁻¹	–	–	< 1e-05 s⁻¹	–
C8U G41A G59C	< 1e-05 s⁻¹	–	–	–	< 1e-05 s⁻¹
C8G G32U G38C G51U	< 1e-05 s⁻¹	–	–	–	–
C8G G60U A64U	< 1e-05 s⁻¹	–	–	–	< 1e-05 s⁻¹
C8A G32U	< 1e-05 s⁻¹	< 1e-05 s⁻¹	< 1e-05 s⁻¹	–	< 1e-05 s⁻¹
C8G A12C A15G U30G G38A U46C	< 1e-05 s⁻¹	–	–	–	< 1e-05 s⁻¹
C8A G40U C61U U69G	< 1e-05 s⁻¹	–	–	–	< 1e-05 s⁻¹
C8A C11U G38C C50U	< 1e-05 s⁻¹	–	< 1e-05 s⁻¹	< 1e-05 s⁻¹	–
C8U A33C C71A	< 1e-05 s⁻¹	–	–	–	–
C8U G62U U69G	0.00021 ± 7.2e-05 s⁻¹	–	–	–	0.000358 ± 0.00015 s⁻¹
C8G C10U	< 1e-05 s⁻¹	–	–	–	< 1e-05 s⁻¹
C8A C10U C34G	< 1e-05 s⁻¹	–	–	–	–
C8U C10U C50A C67G	6.47e-05 ± 2.3e-05 s⁻¹	–	–	–	0.000228 ± 4.1e-05 s⁻¹
C8U G59U	< 1e-05 s⁻¹	< 1e-05 s⁻¹	< 1e-05 s⁻¹	< 1e-05 s⁻¹	< 1e-05 s⁻¹
C8G G9A G29U U56A A64G C70A	< 1e-05 s⁻¹	–	–	–	–
C8G G9U	< 1e-05 s⁻¹	–	< 1e-05 s⁻¹	< 1e-05 s⁻¹	–
C8A C67G	< 1e-05 s⁻¹	< 1e-05 s⁻¹	< 1e-05 s⁻¹	< 1e-05 s⁻¹	< 1e-05 s⁻¹
C8G C11A C50G	0.000193 ± 4.9e-05 s⁻¹	–	–	–	–

Variant	self-cleavage kobs at 40 uM GlcN6P (glucosamine-6-phosphate [1])	self-cleavage kobs at 160 uM GlcN6P (glucosamine-6-phosphate [2])	self-cleavage kobs at 640 uM GlcN6P (glucosamine-6-phosphate [3])	self-cleavage kobs at 2500 uM GlcN6P (glucosamine-6-phosphate [4])	self-cleavage kobs at 10000 uM GlcN6P (glucosamine-6-phosphate [5])
C8U A15G G38U C61G C68G	0.00048 ± 0.00015 s⁻¹	–	–	–	0.000181 ± 4.8e-05 s⁻¹
C8G G38U G60U	< 1e-05 s⁻¹	–	–	–	–
C8A G41U	< 1e-05 s⁻¹	< 1e-05 s⁻¹	< 1e-05 s⁻¹	< 1e-05 s⁻¹	< 1e-05 s⁻¹
C8U G29A	< 1e-05 s⁻¹	–	–	< 1e-05 s⁻¹	–
C8U G29C	< 1e-05 s⁻¹	< 1e-05 s⁻¹	< 1e-05 s⁻¹	< 1e-05 s⁻¹	< 1e-05 s⁻¹
C8U A12C A15G C67U	< 1e-05 s⁻¹	–	–	–	< 1e-05 s⁻¹
C8G C34U A42U	< 1e-05 s⁻¹	–	–	–	–
G7U U45G	< 1e-05 s⁻¹	< 1e-05 s⁻¹	< 1e-05 s⁻¹	< 1e-05 s⁻¹	< 1e-05 s⁻¹
G7U U45C	< 1e-05 s⁻¹	< 1e-05 s⁻¹	< 1e-05 s⁻¹	< 1e-05 s⁻¹	< 1e-05 s⁻¹
G9A C34G	< 1e-05 s⁻¹	< 1e-05 s⁻¹	–	< 1e-05 s⁻¹	< 1e-05 s⁻¹
C8A A15G G60A	< 1e-05 s⁻¹	–	< 1e-05 s⁻¹	< 1e-05 s⁻¹	–
C8G U45C G62A	< 1e-05 s⁻¹	–	–	–	< 1e-05 s⁻¹
C8G G66U	< 1e-05 s⁻¹	< 1e-05 s⁻¹	< 1e-05 s⁻¹	< 1e-05 s⁻¹	–
C8G A48G U54A	< 1e-05 s⁻¹	–	–	< 1e-05 s⁻¹	< 1e-05 s⁻¹
C8U U30A G62A U65A C71U	< 1e-05 s⁻¹	–	–	–	–
C8U G62A	< 1e-05 s⁻¹	< 1e-05 s⁻¹	–	–	7.26e-05 ± 1.2e-05 s⁻¹
C8A C68A	< 1e-05 s⁻¹	< 1e-05 s⁻¹	< 1e-05 s⁻¹	< 1e-05 s⁻¹	–
G9A U31G A39G A48C G60C	< 1e-05 s⁻¹	–	–	–	–
G9A A36C U49C	< 1e-05 s⁻¹	–	–	< 1e-05 s⁻¹	< 1e-05 s⁻¹
G7U G37C A39C G62C	< 1e-05 s⁻¹	–	–	–	–
C8G U45C	< 1e-05 s⁻¹	< 1e-05 s⁻¹	< 1e-05 s⁻¹	< 1e-05 s⁻¹	< 1e-05 s⁻¹
G9A C58U C61G	< 1e-05 s⁻¹	–	–	–	< 1e-05 s⁻¹
G7U U57A	< 1e-05 s⁻¹	< 1e-05 s⁻¹	< 1e-05 s⁻¹	–	< 1e-05 s⁻¹
G9A A15U G63U	< 1e-05 s⁻¹	–	–	–	–
